Where a chain is given by its changes, count along the chain named.
Key:
Experiment in all cases: SPR steady state; FP: PBS + 0.05% Tween20, 5 nM DNA, 1 h, room temperature; SPR: Biacore S200, SA chip, protein 0.1-4500 nM, running buffer not given in material; errors are SD
Settings in all cases: protein: recombinant; tags: N-terminal His8-linker-His8-TEV, cleaved; label: 3' biotin; hairpin, TTTT loop
[1] = molecular target: T1, IRF4 DBD T95K (Homo sapiens, UniProt Q15306 20-132, T95K)
T1 sequence: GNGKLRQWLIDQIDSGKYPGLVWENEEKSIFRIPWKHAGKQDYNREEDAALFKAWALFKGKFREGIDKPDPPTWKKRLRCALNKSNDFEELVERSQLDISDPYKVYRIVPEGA

[2] = molecular target: T2, IRF4 DBD S114R (Homo sapiens, UniProt Q15306 20-132, S114R)
T2 sequence: T1 sequence with K76T, S95R

[3] = molecular target: T3, IRF4 DBD C99R (Homo sapiens, UniProt Q15306 20-132, C99R)
T3 sequence: T1 sequence with K76T, C80R

[4] = molecular target: T4, IRF4 DBD T95A (Homo sapiens, UniProt Q15306 20-132, T95A)
T4 sequence: T1 sequence with K76A

[5] = molecular target: T5, IRF4 DBD T95R (Homo sapiens, UniProt Q15306 20-132, T95R)
T5 sequence: T1 sequence with K76R

[6] = molecular target: T6, IRF4 DBD wild-type (Homo sapiens, UniProt Q15306 20-132)
T6 sequence: T1 sequence with K76T

[7] = molecular target: T7, IRF4 DBD D117A (Homo sapiens, UniProt Q15306 20-132, D117A)
T7 sequence: T1 sequence with K76T, D98A

[8] = molecular target: T8, IRF4 DBD K123R (Homo sapiens, UniProt Q15306 20-132, K123R)
T8 sequence: T1 sequence with K76T, K104R

[9] = molecular target: T9, IRF4 DBD D106Y (Homo sapiens, UniProt Q15306 20-132, D106Y)
T9 sequence: T1 sequence with K76T, D87Y

[10] = molecular target: T10, IRF4 DBD D117H (Homo sapiens, UniProt Q15306 20-132, D117H)
T10 sequence: T1 sequence with K76T, D98H

B1: IRE hairpin (biotin) (structured_DNA)
DNA: CTTGGTTTCACTTCCTGCGTTTTCGCAGGAAGTGAAACCAAG
[1]
  Kd: 0.594 ± 0.251 µM
[2]
  Kd: 0.213 ± 0.094 µM
[3]
  Kd: 0.546 ± 0.174 µM
[4]
  Kd: 0.186 ± 0.082 µM
[5]
  Kd: 0.449 ± 0.049 µM
[6]
  Kd: 0.402 ± 0.165 µM
[7]
  Kd: 0.301 ± 0.087 µM
[8]
  Kd: 0.491 ± 0.048 µM
[9]
  Kd: 0.178 ± 0.043 µM
[10]
  Kd: 0.247 ± 0.084 µM

From paper doi:10.1101/2025.03.12.642038, “Structural, biophysical and biological analysis and characterisation of IRF4 DNA-binding domain mutations associated with multiple myeloma”
